# In the nanobody polyreactivity screen of Harvey et al. (2022):
# Experiment: yeast display, Sf9 membrane polyspecificity reagent, FACS + sequencing; frameworks hold sequencing errors
# Outline: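 Galactose-induced (36–48 hours) yeast carrying a synthetic nanobody display library were exposed to 10% biotinylated, detergent-solubilized Sf9 membrane reagent at 4 °C for 1 hour. FACS followed streptavidin microbead enrichment, using low and high (top ~1%) gates for expression (anti-HA) and reagent binding (streptavidin). Colony PCR, MiSeq 2 × 250 sequencing and CDR-length filtering followed. Labels for polyreactivity reflect the gate of origin.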
sequence,measurement,value
QVQLVESGGGLVQAGGSLRLSCAASGSTFSPNAMGWYRQATGKERELVAAITYRGANTYYADSVKGRFTISRDNAMITVYFQLNSLKPEDTAVYYCAPEYAYHHVGFGYWRQGTQVTVSS,polyreactivity (PSR sort gate),low polyreactivity
QVQLVESGGGLVQAGGSLRLSCAASGSTFSPYAMGWYRPAPGKERELVAAITSGGSTYYADSVKGRFTISRDNAKNTVYLQMNSLKPEDTAVYYCNVVYIRVRRYNYWGQGTQVTVSS,polyreactivity (PSR sort gate),high polyreactivity
QVQLVESGGGLVQAGGSLRLSCAASGSTFSPYAMGWYRQAPGKERELVAAISYDGGSTYYADSVKGRFTISRDNAKNTVYLQMNSLKPDDTAGYYCAADYFRSYEGTYWVVASYYYWGQGTQVTVSS,polyreactivity (PSR sort gate),low polyreactivity
QVQLVESGGGLVQAGGSLRLSCAASGSTFSPYAMGWYRQAPGKERELVAAITGSTGSTYYAESVKGRFTISRDNAKNTVYLQMNSLKPEDTAVYYCAAVSSNARHVSRRRGYYWGQGTQVTVSS,polyreactivity (PSR sort gate),high polyreactivity
QVQLVESGGGLVQAGGSLRLSCAASGSTFSPYVMGWYRQAPGKERELVAAITSGGITNYADSVKGRFTISRDNAKNTVYLQMNSLKPEDTAVYYCNVDRYIRDSWGDYWGQGTQVTVSS,polyreactivity (PSR sort gate),high polyreactivity
QVQLVESGGGLVQAGGSLRLSCAASGSTFSRNAMGWYRQAPGKERELVAAISRRGDTTYYADSVKGRFTISRDNAKNTVYLQMNSLKPEDTAVYYCNRLTIGSSSYDYWGQGTQVTVSS,polyreactivity (PSR sort gate),high polyreactivity
QVQLVESGGGLVQAGGSLRLSCAASGSTFSRNVMAWYRQAPGKDRELVAAISRGGSTNYADSVKGRFTISRDNAKNTVYLQMNSLKPEDTAVYYCNAPRLGKFYYWGQGTQVTVSS,polyreactivity (PSR sort gate),low polyreactivity
QVQLVESGGGLVQAGGSLRLSCAASGSTFSRYAMGWYRQAPGKDRELVAAINRSGGSTYYADSVKGRFTISRDNAKNTVYLQMNSLKPEDTAVYYCNKYTGYLHDYWGQGTQVTVSS,polyreactivity (PSR sort gate),high polyreactivity
QVQLVESGGGLVQAGGSLRLSCAASGSTFSRYAMGWYRQAPGKERELVAAISSGDRTNYADSVKGRFTISRDNAKNTVYLQMNSLKPEDTAVYYCADDLFPIAGEYDYWGQGTQVTVSS,polyreactivity (PSR sort gate),high polyreactivity
QVQLVESGGGLVQAGGSLRLSCAASGSTFSRYAMGWYRQAPGKERELVAAISWSGGSTYYADSVKGRFTISRDTAKNTVYLQMNSLKPEDTAVYYCAAYTYSFRANHDYWGQGTQVTVSS,polyreactivity (PSR sort gate),high polyreactivity
QVQLVESGGGLVQAGGSLRLSCAASGSTFSRYAMGWYRQAPGKERELVAAITSNGGRTYYADSVKGRFTISRDNAKNTVYLQMNSLKPEDTAVYYCAAVYYTEYYWGQGTQVTVSS,polyreactivity (PSR sort gate),high polyreactivity
QVQLVESGGGLVQAGGSLRLSCAASGSTFSSLIMGWYRQAPGKERELVAAISRSGGRTYYADSVKGRFTISRDNAKNTVYLQMNSLKPEDTAVYYCAAPWFRDTRGYSLYDYWGQGTQVTVSS,polyreactivity (PSR sort gate),high polyreactivity
QVQLVESGGGLVQAGGSLRLSCAASGSTFSSNAMGWYRQAPGKERELVAAINRRGGTYYADSVKGRFTISRDNAKNTVYLQMNSLKPEDTAVYYCAAASPYHEYDYCGQGTQVTVSS,polyreactivity (PSR sort gate),low polyreactivity
QVQLVESGGGLVQAGGSLRLSCAASGSTFSSYAMGWYRPAPGKERELVARISSSGGRTSYADSVKGRFTISRDHAKNTVYLQMNSLKAEDTAVSYCAAEDQYYRYFFSYEYWGQGTQVTVSS,polyreactivity (PSR sort gate),high polyreactivity
QVQLVESGGGLVQAGGSLRLSCAASGSTFSSYAMGWYRQAPGKEREFDAAINTDGGSTYYADSVKGRFTISRDNAKNTVYLQMNSLKPEDTAVYYCAARYYWPWYSSYDYWGQGTQVTVSS,polyreactivity (PSR sort gate),low polyreactivity
QVQLVESGGGLVQAGGSLRLSCAASGSTFSSYAMGWYRQAPGKERELVAAINWSGTRTYYADSVKGRFTISRDNAKNTVYLQMNSLKPEDTAVYYCAAPGFGETADYDDWGQGTQVTVSS,polyreactivity (PSR sort gate),low polyreactivity
QVQLVESGGGLVQAGGSLRLSCAASGSTFSSYVMGWYRQAPGKERELVAAISSIGGSTYYADSVKGRFTISRDNAKNTVYLQMNSLKPEDTAVYYCAAEPPGSTYEGGYWGQGTQVTVSS,polyreactivity (PSR sort gate),low polyreactivity
QVQLVESGGGLVQAGGSLRLSCAASGSTFSTNAMGWYRQAPGKERELVASITRSGGSTYYADSVKGRFTISRDNAKNTVYLQMNSLKPEDTAVYYCNADGYYDYDYGYWGQGTQVTVSS,polyreactivity (PSR sort gate),low polyreactivity
QVQLVESGGGLVQAGGSLRLSCAASGSTFSTYAMGWDRQAPGKERELVAAIRWSGGSTYYADSVKGRFTISRDNAKNTVYLQMNSLKPEDTAVYNCNAGASYFLVISQSRRDYWGQGTEVTVSS,polyreactivity (PSR sort gate),low polyreactivity
QVQLVESGGGLVQAGGSLRLSCAASGSTFSTYAMGWYRPAPGKERELVAAISRRGTNTYYADSVKGRFTISRDNAKNTVYLQMNSLKPEDTAVYYCAARSRSLRVYNRVYEVNEMDYWGQGTQVTVSS,polyreactivity (PSR sort gate),low polyreactivity
QVQLVESGGGLVQAGGSLRLSCAASGSTFSTYAMGWYRQAPGKERELVARITRGGSTNYADSVKGRFTISRDNAKNTVYLQMNSLKPEDTAVYYCAAGIRSGRKYDYWGQGTQVTVSS,polyreactivity (PSR sort gate),low polyreactivity
QVQLVESGGGLVQAGGSLRLSCAASGSTFSTYAMGWYRQAPGKERELVASISGRGSSTDYADSVKGRFTISRDNAKNTVYLQMNSLKPEDTAVYYCNRRGYRTSTTYRRYNYWGQGTQVTVSS,polyreactivity (PSR sort gate),high polyreactivity
QVQLVESGGGLVQAGGSLRLSCAASGSTFSTYTMGWYRQAPGKERELVASISGRGGRTYYADSVKGRFTISRDNAKNTVYLQMNSMKPEDTAVYYCAARYWTLPWYQRGDYWGQGTQVTVSS,polyreactivity (PSR sort gate),high polyreactivity
QVQLVESGGGLVQAGGSLRLSCAASGSTFSVNAMGWYRQAPGKEREFVAAITYSGGSTYYADSVKGRFTISRDNAKNTVYLQMNSLKPEDTAVYYCNRDTRYYWKRYGYWGQGTQVTVSS,polyreactivity (PSR sort gate),high polyreactivity
QVQLVESGGGLVQAGGSLRLSCAASGSTFSVYGMGWYRQAPGKERELVAINIIGGSTYYADSVKGRFTISRDNAKNTVYLQMNSLKPEDTAVYYCAADSFPSEFDYWGQGTQVTVSS,polyreactivity (PSR sort gate),low polyreactivity
QVQLVESGGGLVQAGGSLRLSCAASGSTFSVYTMGWYRQAPGKERELVAAITRNGGSTSYADSVKGRFTISRDNAKNTVYLQMNSLKPEDTAVYYCAASYSYRGYLYGYWGQGTQVTVSS,polyreactivity (PSR sort gate),high polyreactivity
QVQLVESGGGLVQAGGSLRLSCAASGSTFSWYAMGWYRQAPGKERELVASISFSGGDTSYADSVKGRFTISRDNAKNTVYLQMHSLKPEDSAVYYCGKEYKYETDTKFDYWGQGTQVTVSS,polyreactivity (PSR sort gate),low polyreactivity
QVQLVESGGGLVQAGGSLRLSCAASGSTFSWYTMGWYRQAPGKERELVAAISWSGGRTYYADSVKGRFTISRDNAKNTVYLQMNSLKPEDTAVYYCAAYDYWYSLGVYQFYYWGQGTQVTVSS,polyreactivity (PSR sort gate),low polyreactivity
QVQLVESGGGLVQAGGSLRLSCAASGSTFSWYTMGWYRQAPGKERELVAAITRDGSTYYADSVKGRFTISRDNAKNTVYLHMNSLKPEDTAVYYCAADLSYWRGGHSRNYWGQGTQVTVSS,polyreactivity (PSR sort gate),low polyreactivity
QVQLVESGGGLVQAGGSLRLSCAASGSTFSWYVMGWYRQAPGKERELVAAISYRGGRTYYADSVKGRFTISRDNAKNTVYLQMNSLKPEDTAVYYCAARGVVDAGRTNRPYDYWGQGTQVTVSS,polyreactivity (PSR sort gate),low polyreactivity
QVQLVESGGGLVQAGGSLRLSCAASGSTFSYNAMGWYRQAPGKERELVAAISWRGGRTYYADSVKGRFTISRDNAKNTVYLQMYSLKPEDTAVYYCAAAYAAYSRYRYDYWGQGTQVTVSS,polyreactivity (PSR sort gate),high polyreactivity
QVQLVESGGGLVQAGGSLRLSCAASGSTFSYNAMGWYRQAPGKERELVAAITSSGSSTYYADSVKGRFTISRYNAKNTVYLQMNSLKPEDTAVYYCAATLYNTEDDYWGQGTQVTVSS,polyreactivity (PSR sort gate),low polyreactivity
QVQLVESGGGLVQAGGSLRLSCAASGSTFSYNAMGWYRQAPGKERELVATITYSGGTTYYADSVKGRFTISRDNAKNTVYLQMNSLKPEDTAVYYCAALYSFSYLSTSFVVEDWYYYWGQGTQVTVSS,polyreactivity (PSR sort gate),high polyreactivity
QVQLVESGGGLVQAGGSLRLSCAASGSTFSYNAMGWYRQAPGKVRELVASINSRGGTTYYADSVKGRFTISRDNAKNTVYLQMNSRKPEDTAVYYCATDVYRLGEYDYWGQGTQVTVSS,polyreactivity (PSR sort gate),low polyreactivity
QVQLVESGGGLVQAGGSLRLSCAASGSTFSYNDMGWYRQAPGKERELVAAITDSDGNTDYADSVKGRFTISRDKAKNTVYLQMNSLKPEDTAVYYCAAYYYGSVAQDREYWGQGTQVTVSS,polyreactivity (PSR sort gate),high polyreactivity
QVQLVESGGGLVQAGGSLRLSCAASGSTFSYYAMGWYRQAPGKEMELVAAIRSGGSTYYADSVKGRFTISRDNAKNTVYLQMNSLKPEDTAVYYCNADYIRASTLKYGTIYYWHYDYWGQGTQVTVSS,polyreactivity (PSR sort gate),high polyreactivity
QVQLVESGGGLVQAGGSLRLSCAASGSTFSYYAMGWYRQAPGKERDLVASIDGSTGSTYYADSVKGRFTISRDNAKTTVYLQMNILKPEDTAVYYFNAESLDYYDNAYEYWGQGTQVTVSS,polyreactivity (PSR sort gate),low polyreactivity
QVQLVESGGGLVQAGGSLRLSCAASGSTFSYYAMGWYRQAPGKERELVAAITKRGGSTYYADSVKGRFTISRDNAKNTVYLQMNSLKPEVTAVYYCAAKRKSYYSYNFDYWGQGTQVTVSS,polyreactivity (PSR sort gate),high polyreactivity
QVQLVESGGGLVQAGGSLRLSCAASGSTFSYYAMGWYRQAPGKERELVARISWRGGSTYYADSVKGRFTISRDNAKNTVYLQMNSLKPEDTAVYYCAARRSGTYYGTYKSNGRNYWGQGTQVTVSS,polyreactivity (PSR sort gate),high polyreactivity
QVQLVESGGGLVQAGGSLRLSCAASGSTFSYYAMGWYRQAPGKEWELVAAIRSGGSTYYADSVKGRFTISRDNAKNTVYLQMNSLKPEDTAVYYCNADYIRASTLNYGTIYYWHYDYWGQGTQVTVSS,polyreactivity (PSR sort gate),high polyreactivity
QVQLVESGGGLVQAGGSLRLSCAASGSTFSYYDMGWYRQAPGKERELVAAISWNGGTTYYADSVKGRFTISRDNAKNTVYLQMNSLKPEDTAVYYCAATWDFYWAPYDSWGQGTQVTVSS,polyreactivity (PSR sort gate),low polyreactivity
QVQLVESGGGLVQAGGSLRLSCAASGSTFSYYGMGWYRPAPGKERELVAAIDYSGDSTYYADSVKARFTISRDNAKNTVYLQMNSLKPEDTAVYYCAADDYPWNRYEYWGQGTQVTVSS,polyreactivity (PSR sort gate),low polyreactivity
QVQLVESGGGLVQAGGSLRLSCAASGSTFSYYPMGWYRQAPGKERELVATISKRGGTTSYADSVKGRFTISRDNAKNTVYLQMISLKPEDTAVYYCAARYSKVHYAYDYWGQGTQVTVSS,polyreactivity (PSR sort gate),high polyreactivity
